Data on six molecules can be found in US20260001928A1 (CORTERIA PHARMACEUTICALS, priority 2022, published 2026).

*1 amine or outer side, *2 acyl side, *3 side chain or, on linkers, in order; H or OH if unused. Side-chain parts run from the residue outwards. [ ]: non-standard residue; d: D form. The star is where a group is joined. C18 diacid = O=C(O)CCCCCCCCCCCCCCCCC(=O)*; C16 diacid = O=C(O)CCCCCCCCCCCCCCC(=O)*; γGlu = O=C(O)[C@H](CCC(=O)[*:2])N[*:1]; Pentanoyl = CCCCC(=O)*; AEEA = NCCOCCOCC(=O)O; Aib = CC(C)(N)C(=O)O; Propionyl = CCC(=O)*; Butyryl = CCCC(=O)*

The target of assay [1] is human corticotropin-releasing factor 2a (CRF2a receptor) (human), Q13324. In words: cell-based or functional assay.
Assay [2] addresses T1, CRF1R receptor (UniProt P34998 24-415, limits assumed).
T1 sequence (looked up): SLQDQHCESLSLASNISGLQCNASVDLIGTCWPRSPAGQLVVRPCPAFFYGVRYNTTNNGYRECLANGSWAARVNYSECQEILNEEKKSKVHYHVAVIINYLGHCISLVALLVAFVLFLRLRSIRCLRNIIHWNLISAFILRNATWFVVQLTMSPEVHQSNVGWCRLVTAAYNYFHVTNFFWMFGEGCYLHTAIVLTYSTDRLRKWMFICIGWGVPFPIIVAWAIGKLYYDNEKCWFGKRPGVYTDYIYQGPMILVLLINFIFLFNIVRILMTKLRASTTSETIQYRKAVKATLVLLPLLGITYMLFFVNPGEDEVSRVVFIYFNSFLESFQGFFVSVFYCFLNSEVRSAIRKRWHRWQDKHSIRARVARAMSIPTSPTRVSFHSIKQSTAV
In words: cell-based or functional assay.

Sequence of human corticotropin-releasing factor 2a (CRF2a receptor) (human), Q13324 (Q13324 20-411): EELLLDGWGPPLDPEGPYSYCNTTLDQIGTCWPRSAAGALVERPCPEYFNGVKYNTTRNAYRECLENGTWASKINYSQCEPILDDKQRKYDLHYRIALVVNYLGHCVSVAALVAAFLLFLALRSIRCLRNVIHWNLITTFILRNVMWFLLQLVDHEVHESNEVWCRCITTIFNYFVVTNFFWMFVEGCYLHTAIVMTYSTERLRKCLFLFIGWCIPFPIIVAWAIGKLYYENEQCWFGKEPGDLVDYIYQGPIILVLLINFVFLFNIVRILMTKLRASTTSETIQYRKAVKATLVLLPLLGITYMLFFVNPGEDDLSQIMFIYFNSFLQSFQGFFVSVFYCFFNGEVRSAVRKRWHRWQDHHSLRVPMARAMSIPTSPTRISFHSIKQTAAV

B1: SEQ ID NO 22 (peptide)
peptide: Pentanoyl-VLSLD[dV]PIKLK([γGlu-C16 diacid])Q[Aib]LLKQERQKKQREQAEKNVQILEQV-NH2
SMILES: CCCCC(=O)N[C@H](C(=O)N[C@@H](CC(C)C)C(=O)N[C@@H](CO)C(=O)N[C@@H](CC(C)C)C(=O)N[C@@H](CC(=O)O)C(=O)N[C@@H](C(=O)N1CCC[C@H]1C(=O)N[C@H](C(=O)N[C@@H](CCCCN)C(=O)N[C@@H](CC(C)C)C(=O)N[C@@H](CCCCNC(=O)CC[C@H](NC(=O)CCCCCCCCCCCCCCC(=O)O)C(=O)O)C(=O)N[C@@H](CCC(N)=O)C(=O)NC(C)(C)C(=O)N[C@@H](CC(C)C)C(=O)N[C@@H](CC(C)C)C(=O)N[C@@H](CCCCN)C(=O)N[C@@H](CCC(N)=O)C(=O)N[C@@H](CCC(=O)O)C(=O)N[C@@H](CCCNC(=N)N)C(=O)N[C@@H](CCC(N)=O)C(=O)N[C@@H](CCCCN)C(=O)N[C@@H](CCCCN)C(=O)N[C@@H](CCC(N)=O)C(=O)N[C@@H](CCCNC(=N)N)C(=O)N[C@@H](CCC(=O)O)C(=O)N[C@@H](CCC(N)=O)C(=O)N[C@@H](C)C(=O)N[C@@H](CCC(=O)O)C(=O)N[C@@H](CCCCN)C(=O)N[C@@H](CC(N)=O)C(=O)N[C@H](C(=O)N[C@@H](CCC(N)=O)C(=O)N[C@H](C(=O)N[C@@H](CC(C)C)C(=O)N[C@@H](CCC(=O)O)C(=O)N[C@@H](CCC(N)=O)C(=O)N[C@H](C(N)=O)C(C)C)[C@@H](C)CC)C(C)C)[C@@H](C)CC)C(C)C)C(C)C
In assay [1], B1 had an EC50 [nM] (cAMP) of 4.44 nM. In addition, the “Emax (% I)” value in assay [2] is 3%.

B2: SEQ ID NO 35 (peptide)
peptide: Propionyl-VLSLD[dV]PIKLK([γGlu-C16 diacid])KILLEQEKQKKQREQAETNKQILAQV-NH2
SMILES: CCC(=O)N[C@H](C(=O)N[C@@H](CC(C)C)C(=O)N[C@@H](CO)C(=O)N[C@@H](CC(C)C)C(=O)N[C@@H](CC(=O)O)C(=O)N[C@@H](C(=O)N1CCC[C@H]1C(=O)N[C@H](C(=O)N[C@@H](CCCCN)C(=O)N[C@@H](CC(C)C)C(=O)N[C@@H](CCCCNC(=O)CC[C@H](NC(=O)CCCCCCCCCCCCCCC(=O)O)C(=O)O)C(=O)N[C@@H](CCCCN)C(=O)N[C@H](C(=O)N[C@@H](CC(C)C)C(=O)N[C@@H](CC(C)C)C(=O)N[C@@H](CCC(=O)O)C(=O)N[C@@H](CCC(N)=O)C(=O)N[C@@H](CCC(=O)O)C(=O)N[C@@H](CCCCN)C(=O)N[C@@H](CCC(N)=O)C(=O)N[C@@H](CCCCN)C(=O)N[C@@H](CCCCN)C(=O)N[C@@H](CCC(N)=O)C(=O)N[C@@H](CCCNC(=N)N)C(=O)N[C@@H](CCC(=O)O)C(=O)N[C@@H](CCC(N)=O)C(=O)N[C@@H](C)C(=O)N[C@@H](CCC(=O)O)C(=O)N[C@H](C(=O)N[C@@H](CC(N)=O)C(=O)N[C@@H](CCCCN)C(=O)N[C@@H](CCC(N)=O)C(=O)N[C@H](C(=O)N[C@@H](CC(C)C)C(=O)N[C@@H](C)C(=O)N[C@@H](CCC(N)=O)C(=O)N[C@H](C(N)=O)C(C)C)[C@@H](C)CC)[C@@H](C)O)[C@@H](C)CC)[C@@H](C)CC)C(C)C)C(C)C
The molecule B2 came in with an EC50 [nM] (cAMP) in assay [1] of 0.23 nM. For the same molecule, in assay [2], the “Emax (% I)” value came out at 13%.

B3: SEQ ID NO 37 (peptide)
peptide: Pentanoyl-VLSLD[dV]PIKLK([γGlu-C16 diacid])KILLEQEKQKKQREQAETNKQILAQV-NH2
SMILES: CCCCC(=O)N[C@H](C(=O)N[C@@H](CC(C)C)C(=O)N[C@@H](CO)C(=O)N[C@@H](CC(C)C)C(=O)N[C@@H](CC(=O)O)C(=O)N[C@@H](C(=O)N1CCC[C@H]1C(=O)N[C@H](C(=O)N[C@@H](CCCCN)C(=O)N[C@@H](CC(C)C)C(=O)N[C@@H](CCCCNC(=O)CC[C@H](NC(=O)CCCCCCCCCCCCCCC(=O)O)C(=O)O)C(=O)N[C@@H](CCCCN)C(=O)N[C@H](C(=O)N[C@@H](CC(C)C)C(=O)N[C@@H](CC(C)C)C(=O)N[C@@H](CCC(=O)O)C(=O)N[C@@H](CCC(N)=O)C(=O)N[C@@H](CCC(=O)O)C(=O)N[C@@H](CCCCN)C(=O)N[C@@H](CCC(N)=O)C(=O)N[C@@H](CCCCN)C(=O)N[C@@H](CCCCN)C(=O)N[C@@H](CCC(N)=O)C(=O)N[C@@H](CCCNC(=N)N)C(=O)N[C@@H](CCC(=O)O)C(=O)N[C@@H](CCC(N)=O)C(=O)N[C@@H](C)C(=O)N[C@@H](CCC(=O)O)C(=O)N[C@H](C(=O)N[C@@H](CC(N)=O)C(=O)N[C@@H](CCCCN)C(=O)N[C@@H](CCC(N)=O)C(=O)N[C@H](C(=O)N[C@@H](CC(C)C)C(=O)N[C@@H](C)C(=O)N[C@@H](CCC(N)=O)C(=O)N[C@H](C(N)=O)C(C)C)[C@@H](C)CC)[C@@H](C)O)[C@@H](C)CC)[C@@H](C)CC)C(C)C)C(C)C
On to B3, for which the EC50 [nM] (cAMP) in assay [1] was 0.13 nM. Moreover, the “Emax (% I)” value in assay [2] is 22%.

B4: SEQ ID NO 48 (peptide)
peptide: Ac-IVLSLD[dV]PIKLK([γGlu-C16 diacid])KILLEQEKQKKQREQAETNVQILAQV-NH2
SMILES: CC[C@H](C)[C@H](NC(C)=O)C(=O)N[C@H](C(=O)N[C@@H](CC(C)C)C(=O)N[C@@H](CO)C(=O)N[C@@H](CC(C)C)C(=O)N[C@@H](CC(=O)O)C(=O)N[C@@H](C(=O)N1CCC[C@H]1C(=O)N[C@H](C(=O)N[C@@H](CCCCN)C(=O)N[C@@H](CC(C)C)C(=O)N[C@@H](CCCCNC(=O)CC[C@H](NC(=O)CCCCCCCCCCCCCCC(=O)O)C(=O)O)C(=O)N[C@@H](CCCCN)C(=O)N[C@H](C(=O)N[C@@H](CC(C)C)C(=O)N[C@@H](CC(C)C)C(=O)N[C@@H](CCC(=O)O)C(=O)N[C@@H](CCC(N)=O)C(=O)N[C@@H](CCC(=O)O)C(=O)N[C@@H](CCCCN)C(=O)N[C@@H](CCC(N)=O)C(=O)N[C@@H](CCCCN)C(=O)N[C@@H](CCCCN)C(=O)N[C@@H](CCC(N)=O)C(=O)N[C@@H](CCCNC(=N)N)C(=O)N[C@@H](CCC(=O)O)C(=O)N[C@@H](CCC(N)=O)C(=O)N[C@@H](C)C(=O)N[C@@H](CCC(=O)O)C(=O)N[C@H](C(=O)N[C@@H](CC(N)=O)C(=O)N[C@H](C(=O)N[C@@H](CCC(N)=O)C(=O)N[C@H](C(=O)N[C@@H](CC(C)C)C(=O)N[C@@H](C)C(=O)N[C@@H](CCC(N)=O)C(=O)N[C@H](C(N)=O)C(C)C)[C@@H](C)CC)C(C)C)[C@@H](C)O)[C@@H](C)CC)[C@@H](C)CC)C(C)C)C(C)C
Consider B4, for which, in assay [1], the EC50 [nM] (cAMP) was found to be 1.35 nM. The “Emax (% I)” value in assay [2] was 4%.

B5: SEQ ID NO 103 (peptide)
peptide: Ac-IVLSLD[dV]PIKLK([AEEA-AEEA-γGlu-C18 diacid])KILLEQEKQKKQREQAETNVQILAQV-NH2
SMILES: CC[C@H](C)[C@H](NC(C)=O)C(=O)N[C@H](C(=O)N[C@@H](CC(C)C)C(=O)N[C@@H](CO)C(=O)N[C@@H](CC(C)C)C(=O)N[C@@H](CC(=O)O)C(=O)N[C@@H](C(=O)N1CCC[C@H]1C(=O)N[C@H](C(=O)N[C@@H](CCCCN)C(=O)N[C@@H](CC(C)C)C(=O)N[C@@H](CCCCNC(=O)COCCOCCNC(=O)COCCOCCNC(=O)CC[C@H](NC(=O)CCCCCCCCCCCCCCCCC(=O)O)C(=O)O)C(=O)N[C@@H](CCCCN)C(=O)N[C@H](C(=O)N[C@@H](CC(C)C)C(=O)N[C@@H](CC(C)C)C(=O)N[C@@H](CCC(=O)O)C(=O)N[C@@H](CCC(N)=O)C(=O)N[C@@H](CCC(=O)O)C(=O)N[C@@H](CCCCN)C(=O)N[C@@H](CCC(N)=O)C(=O)N[C@@H](CCCCN)C(=O)N[C@@H](CCCCN)C(=O)N[C@@H](CCC(N)=O)C(=O)N[C@@H](CCCNC(=N)N)C(=O)N[C@@H](CCC(=O)O)C(=O)N[C@@H](CCC(N)=O)C(=O)N[C@@H](C)C(=O)N[C@@H](CCC(=O)O)C(=O)N[C@H](C(=O)N[C@@H](CC(N)=O)C(=O)N[C@H](C(=O)N[C@@H](CCC(N)=O)C(=O)N[C@H](C(=O)N[C@@H](CC(C)C)C(=O)N[C@@H](C)C(=O)N[C@@H](CCC(N)=O)C(=O)N[C@H](C(N)=O)C(C)C)[C@@H](C)CC)C(C)C)[C@@H](C)O)[C@@H](C)CC)[C@@H](C)CC)C(C)C)C(C)C
B5 gave an EC50 [nM] (cAMP) in assay [1] of 3.09 nM. In assay [2], the “Emax (% I)” value came to 3%.

B6: SEQ ID NO 36 (peptide)
peptide: Butyryl-VLSLD[dV]PIKLK([γGlu-C16 diacid])KILLEQEKQKKQREQAETNKQILAQV-NH2
SMILES: CCCC(=O)N[C@H](C(=O)N[C@@H](CC(C)C)C(=O)N[C@@H](CO)C(=O)N[C@@H](CC(C)C)C(=O)N[C@@H](CC(=O)O)C(=O)N[C@@H](C(=O)N1CCC[C@H]1C(=O)N[C@H](C(=O)N[C@@H](CCCCN)C(=O)N[C@@H](CC(C)C)C(=O)N[C@@H](CCCCNC(=O)CC[C@H](NC(=O)CCCCCCCCCCCCCCC(=O)O)C(=O)O)C(=O)N[C@@H](CCCCN)C(=O)N[C@H](C(=O)N[C@@H](CC(C)C)C(=O)N[C@@H](CC(C)C)C(=O)N[C@@H](CCC(=O)O)C(=O)N[C@@H](CCC(N)=O)C(=O)N[C@@H](CCC(=O)O)C(=O)N[C@@H](CCCCN)C(=O)N[C@@H](CCC(N)=O)C(=O)N[C@@H](CCCCN)C(=O)N[C@@H](CCCCN)C(=O)N[C@@H](CCC(N)=O)C(=O)N[C@@H](CCCNC(=N)N)C(=O)N[C@@H](CCC(=O)O)C(=O)N[C@@H](CCC(N)=O)C(=O)N[C@@H](C)C(=O)N[C@@H](CCC(=O)O)C(=O)N[C@H](C(=O)N[C@@H](CC(N)=O)C(=O)N[C@@H](CCCCN)C(=O)N[C@@H](CCC(N)=O)C(=O)N[C@H](C(=O)N[C@@H](CC(C)C)C(=O)N[C@@H](C)C(=O)N[C@@H](CCC(N)=O)C(=O)N[C@H](C(N)=O)C(C)C)[C@@H](C)CC)[C@@H](C)O)[C@@H](C)CC)[C@@H](C)CC)C(C)C)C(C)C
Consider B6, for which the EC50 [nM] (cAMP) in assay [1] came to 0.14 nM. Further, the “Emax (% I)” value in assay [2] turned out to be 22%.
